This is an account of results in paper PMC12141448.

For experiment [1], the target named is PelC lipoprotein of P. aeruginosa PAO1 (Pseudomonas aeruginosa PAO1). In words: cryo-EM structure; PelBC complex in MSP1D1 nanodiscs (POPC:POPG 70:30), 50 mM HEPES pH 7.4, 150 mM NaCl; no symmetry imposed; 2.52 Å.
The target in experiment [2] is PelB of P. aeruginosa PAO1, C-terminal fragment (residues 762-1193) with three periplasmic TPR repeats and the transmembrane β-barrel (Pseudomonas aeruginosa PAO1) (UniProt Q9HZE5). The experiment is described as above.

Regarding “PelC lipoprotein of P. aeruginosa PAO1 (natural protein)”, the stoichiometry N (as a rule, a count of units in the complex or per binding partner) in experiment [1] stood at 12 subunits. In experiment [2], this substance had a stoichiometry N (PelC per PelB) of 12.
